From publication PMC11229311, “Structural and functional investigation of the DHH/DHHA1 family proteins in Deinococcus radiodurans” (Nucleic Acids Research, 2024)

Molecular target: the molecule itself
Assay: SEC; analytical gel filtration, Superdex 75 10/300 GL, 20 mM Tris pH 8.0, 100 mM NaCl, 1 mM TCEP; 300 ul of 1 mM protein loaded; calibrated with protein standards (6.5-75 kDa)

B1: Deinococcus radiodurans RecJ-like (DrRecJ-like), wild type (enzyme, UniProt Q9RW43 1-338, looked up)
chain: MTAENSATPDYRRNVGAVADALLAHPGPIVVLSHENPDGDALGSVLGLSRALRTLGKTVLAPMTVPHYLSFLPQPGELTAPLESWPQGALAAVLDVDNNDPVRVAGADLTQFDGPVVNVDHHGTNLRRADAGVVDPSKPAAAMMVADVIDALGAPWSEAVATPLMLGLNTDTGNFAFDSVSAETFECAARLRAHGARIGWLNDQMRQNPQSYYLLLREVLGKLEFLHGGRVVQTRVDEEMLARAGATWEQVENYVSMLRNAEGAQLAVMAKDYGDRVKFSLRSRGPVSAQNIAVALGGGGHVPAAGATVISSYAEARARLDAAIEAELARVDAQATAE
notes: RecJ-like protein (DR_0826) of Deinococcus radiodurans, full-length gene, residues 1-338, amplified from genomic DNA; DHH and DHHA1 domains; Tag-free after TEV cleavage of the His-MBP-TEV fusion (vector pET28-HMT); also called DrRecJ-like^wt; DrNrnA; source: E. coli Rossetta (DE3), purified (His-tag column, HiTrap Q, TEV tag removal, Superdex 75); not shown: His6, N-terminal, cleaved; MBP, …
stoichiometry N: 2
